In patent US20240059799A1 (Pfizer, published 2024):

T1: recombinant human TL1A (human, UniProt O95150 71-251)
T1 construct: Homotrimeric cytokine; biotinylated with Sulfo-NHS-biotin where captured for SPR, coated unlabelled in ELISA, soluble in bioassays; also called TNFSF15
T1 chain: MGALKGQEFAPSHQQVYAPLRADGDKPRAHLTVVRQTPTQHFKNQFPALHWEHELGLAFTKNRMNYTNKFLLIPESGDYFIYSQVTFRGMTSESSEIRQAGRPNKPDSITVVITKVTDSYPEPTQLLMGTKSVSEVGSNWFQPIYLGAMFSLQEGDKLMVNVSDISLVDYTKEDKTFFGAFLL

T2: recombinant human TL1A (human, UniProt O95150 71-251)
T2 construct: homotrimer; biotinylated for SPR capture; the ELISA paragraphs say only 'recombinant TL1A'; also called TNFSF15
T2 chain: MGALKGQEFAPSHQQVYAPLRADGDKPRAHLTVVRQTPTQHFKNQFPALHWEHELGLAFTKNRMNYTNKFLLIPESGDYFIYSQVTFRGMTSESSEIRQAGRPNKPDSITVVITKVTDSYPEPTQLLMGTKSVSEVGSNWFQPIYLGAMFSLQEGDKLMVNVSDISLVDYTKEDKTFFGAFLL


Experiments:
recombinant human TL1A [1] = molecular target: T1, recombinant human TL1A; experiment: competition ELISA, coated TL1A, competitor bio-TL1A-0002
Experimental: For this competition ELISA assay procedure, 96-well high binding plates (Corning, product number 3590) were coated with 1 μg/mL recombinant TL1A in 100 μL/well in Phospate Buffered Saline (PBS) overnight at 4° C. Plates were then blocked in PBS+0.02% casein solution and washed with PBS+0.05% Tween-20 following standard ELISA protocol. […] Plates were washed with PBS+0.05% Tween-20 following standard ELISA protocol, and Streptavidin-HRP (Southern Biotech, product number 7100-05) diluted to 1:10,000 in assay buffer was added to plates and incubated for 25-30 minutes at room temperature. Next, the plates were washed with PBS+0.05% Tween-20 following standard ELISA protocol, and then TMB substrate (BioFX Laboratories, catalog number TMBW-0100-01) was added to plates. Reactions were stopped after approximately 5 minutes by adding 0.18 M ortho-phosphoric acid to each well and absorbance was read at 450 nm.

recombinant human TL1A [2] = molecular target: T1, recombinant human TL1A; experiment: cell-based or functional assay
recombinant human TL1A [3] = molecular target: T2, recombinant human TL1A; experiment: competition ELISA vs bio-TL1A-0002

Row | Binder | Bioactivity relative to TL1A-0002 (recombinant human TL1A [3]) [fold] | IC50 (recombinant human TL1A [3]) [nM] | other results
1 | TL1A-0042 (antibody, human IgG1, kappa, V domains shown, parental heavy chain with IGKV1-39*01 light chain; human IgG1 effector-function-minimized/kappa) VH: QVQLVQSGAEVKKPGASVKVSCKASGYDFTYYGISWVRQAPGQGLEWMGWISTYNGNTHYARMLQGRVTMTTDTSTRTAYMELRSLRSDDTAVYYCARENYYGSGAYRGGMDVWGQGTTVTVSS VL: DIQMTQSPSSLSASVGDRVTITCRASQSVSSYLAWYQQKPGKAPKLLIYDASNRATGVPSRFSGSGSGTDFTLTISSLQPEDFATYYCQQRSNWPWTFGQGTKVEIKR | – | – | Bioactivity relative to TL1A-0002 (recombinant human TL1A [1]): 0.8 fold; IC50 (recombinant human TL1A [1]): 4.2 nM; TF-1 NF-κB reporter cell bioassay IC50 (recombinant human TL1A [2]): 25.9 nM; TF-1 NF-κB reporter cell bioassay, Bioactivity relative to TL1A-0002 (recombinant human TL1A [2]): 0.7 fold; Whole blood IFNγ assay IC50 (recombinant human TL1A [2]): 0.748 nM; Whole blood IFNγ assay, Bioactivity relative to TL1A-0002 (recombinant human TL1A [2]): 0.9 fold
2 | TL1A-0266 (antibody, human IgG1, kappa, V domains shown, human IgG1 effector-function-minimized/kappa) VH: QVQLVQSGAEVKKPGASVKVSCKASGYDYTYYGISWVRQAPGQGLEWMGWISTYNTNTHYAPSLQGRVTMTTDTSTSTAYMELRSLRSDDTAVYYCARESYYGSGAFRGGMDVWGQGTTVTVSS VL: DIQMTQSPSSLSASVGDRVTITCRASQSVSSYLAWYQQKPGKAPKLLIYDASNRATGVPSRFSGSGSGTDFTLTISSLQPEDFATYYCQQRSNWPWTFGQGTKVEIKR | – | – | Bioactivity relative to TL1A-0002 (recombinant human TL1A [1]): 1.3 fold; IC50 (recombinant human TL1A [1]): 6.6 nM; TF-1 NF-κB reporter cell bioassay IC50 (recombinant human TL1A [2]): 37 nM; TF-1 NF-κB reporter cell bioassay, Bioactivity relative to TL1A-0002 (recombinant human TL1A [2]): 1.1 fold; Whole blood IFNγ assay IC50 (recombinant human TL1A [2]): 0.745 nM; Whole blood IFNγ assay, Bioactivity relative to TL1A-0002 (recombinant human TL1A [2]): 0.9 fold
3 | TL1A-0261 (antibody, human IgG1, kappa, V domains shown, human IgG1 effector-function-minimized/kappa) VH: QVQLVQSGAEVKKPGASVKVSCKASGYDYTYYGISWVRQAPGQGLEWMGWISTYNTGTHYAPSLQGRVTMTTDTSTSTAYMELRSLRSDDTAVYYCARESYYGSGAHRGGMDVWGQGTTVTVSS VL: DIQMTQSPSSLSASVGDRVTITCRASQSVSSYLAWYQQKPGKAPKLLIYDASNRATGVPSRFSGSGSGTDFTLTISSLQPEDFATYYCQQRSNWPWTFGQGTKVEIKR | – | – | Bioactivity relative to TL1A-0002 (recombinant human TL1A [1]): 1.1 fold; IC50 (recombinant human TL1A [1]): 5.6 nM; TF-1 NF-κB reporter cell bioassay IC50 (recombinant human TL1A [2]): 29.5 nM; TF-1 NF-κB reporter cell bioassay, Bioactivity relative to TL1A-0002 (recombinant human TL1A [2]): 0.8 fold; Whole blood IFNγ assay IC50 (recombinant human TL1A [2]): 0.923 nM; Whole blood IFNγ assay, Bioactivity relative to TL1A-0002 (recombinant human TL1A [2]): 1.1 fold
4 | TL1A-0096 (antibody, IgG1, V domains shown, IgG1/kappa variant of TL1A-0002) VH: QVQLVQSGAEVKKPGASVKVSCKASGYDFTYYGISWVRQAPGQGLEWMGWISTYNGNTHYARMLQGRVTMTTDTSTRTAYMELRSLRSDDTAVYYCAREVYYGSGAYRGGMDVWGQGTTVTVSS VL: EIVLTQSPATLSLSPGERATLSCRASQSVSSYLAWYQQKPGQAPRLLIYDASNRATGIPARFSGSGSGTDFTLTISSLEPEDFAVYYCQQRSNWPWTFGQGTKVEIKR | 2.3 | 10.3 | –
5 | TL1A-0097 (antibody, IgG1, V domains shown, IgG1/kappa variant of TL1A-0002) VH: QVQLVQSGAEVKKPGASVKVSCKASGYDFTYYGISWVRQAPGQGLEWMGWISTYNGNTHYARMLQGRVTMTTDTSTRTAYMELRSLRSDDTAVYYCAREQYYGSGAYRGGMDVWGQGTTVTVSS VL: EIVLTQSPATLSLSPGERATLSCRASQSVSSYLAWYQQKPGQAPRLLIYDASNRATGIPARFSGSGSGTDFTLTISSLEPEDFAVYYCQQRSNWPWTFGQGTKVEIKR | 2.2 | 10 | –
6 | TL1A-0098 (antibody, IgG1, V domains shown, IgG1/kappa variant of TL1A-0002) VH: QVQLVQSGAEVKKPGASVKVSCKASGYDFTYYGISWVRQAPGQGLEWMGWISTYNGNTHYARMLQGRVTMTTDTSTRTAYMELRSLRSDDTAVYYCAREEYYGSGAYRGGMDVWGQGTTVTVSS VL: EIVLTQSPATLSLSPGERATLSCRASQSVSSYLAWYQQKPGQAPRLLIYDASNRATGIPARFSGSGSGTDFTLTISSLEPEDFAVYYCQQRSNWPWTFGQGTKVEIKR | 1.5 | 6.6 | –
7 | TL1A-0147 (antibody, IgG1, V domains shown, IgG1/kappa variant of TL1A-0002) VH: QVQLVQSGAEVKKPGASVKVSCKASGYDFTYYGISWVRQAPGQGLEWMGWISTYNGNEHYAQKLQGRVTMTTDTSTRTAYMELRSLRSDDTAVYYCARENYYGSGAYRGGMDVWGQGTTVTVSS VL: EIVLTQSPATLSLSPGERATLSCRASQSVSSYLAWYQQKPGQAPRLLIYDASNRATGIPARFSGSGSGTDFTLTISSLEPEDFAVYYCQQRSNWPWTFGQGTKVEIKR | 1.6 | 7.2 | –
8 | TL1A-0160 (antibody, IgG1, V domains shown, IgG1/kappa variant of TL1A-0002) VH: QVQLVQSGAEVKKPGASVKVSCKASGYDFTYYGISWVRQAPGQGLEWMGWISTYNGNEHYAPSLQGRVTMTTDTSTRTAYMELRSLRSDDTAVYYCARENYYGSGLYRGGMDVWGQGTTVTVSS VL: EIVLTQSPATLSLSPGERATLSCRASQSVSSYLAWYQQKPGQAPRLLIYDASNRATGIPARFSGSGSGTDFTLTISSLEPEDFAVYYCQQRSNWPWTFGQGTKVEIKR | 2 | 9.1 | –
9 | TL1A-0167 (antibody, human IgG1, kappa, V domains shown, TL1A-0002 heavy chain with R(H76)S, TL1A-0002 light chain) VH: QVQLVQSGAEVKKPGASVKVSCKASGYDFTYYGISWVRQAPGQGLEWMGWISTYNGNTHYARMLQGRVTMTTDTSTSTAYMELRSLRSDDTAVYYCARENYYGSGAYRGGMDVWGQGTTVTVSS VL: EIVLTQSPATLSLSPGERATLSCRASQSVSSYLAWYQQKPGQAPRLLIYDASNRATGIPARFSGSGSGTDFTLTISSLEPEDFAVYYCQQRSNWPWTFGQGTKVEIKR | 0.9 | 4.2 | –
10 | TL1A-0193 (antibody, IgG1, V domains shown, IgG1/kappa variant of TL1A-0002) VH: QVQLVQSGAEVKKPGASVKVSCKASGYDFTYYGISWVRQAPGQGLEWMGWISTYNGNTHYARMLQGRVTMTTDTSTRTAYMELRSLRSDDTAVYYCAREQYYGSGEYRGGMDVWGQGTTVTVSS VL: EIVLTQSPATLSLSPGERATLSCRASQSVSSYLAWYQQKPGQAPRLLIYDASNRATGIPARFSGSGSGTDFTLTISSLEPEDFAVYYCQQRSNWPWTFGQGTKVEIKR | 2.7 | 12 | –
11 | TL1A-0250 (antibody, IgG1, V domains shown, IgG1/kappa) VH: QVQLVQSGAEVKKPGASVKVSCKASGYDFTYYGISWVRQAPGQGLEWMGWISTYNTVTHYAPSLQGRVTMTTDTSTSTAYMELRSLRSDDTAVYYCARESYYGSGAFRGGMDVWGQGTTVTVSS VL: DIQMTQSPSSLSASVGDRVTITCRASQSVSSYLAWYQQKPGKAPKLLIYDASNRATGVPSRFSGSGSGTDFTLTISSLQPEDFATYYCQQRSNWPWTFGQGTKVEIKR | – | – | fold reduction of TL1A binding properties compared to TL1A-0002 (recombinant human TL1A [3]): > 300 fold
12 | TL1A-0025 (antibody, V domains shown) VH: QVQLVQSGAEVKKPGASVKVSCKASGYDFTYYGISWVRQAPGQGLEWMGWISTYNGNDHYADSLQGRVTMTTDTSTRTAYMELRSLRSDDTAVYYCARENYYGSGAYRGGMDVWGQGTTVTVSS VL: EIVLTQSPATLSLSPGERATLSCRASQSVSSYLAWYQQKPGQAPRLLIYDASNRATGIPARFSGSGSGTDFTLTISSLEPEDFAVYYCQQRSNWPWTFGQGTKVEIKR | 1.6 | 7.2 | –

The next lines start with results.

Row | Bioactivity relative to TL1A-0002 (recombinant human TL1A [3]) [fold] | IC50 (recombinant human TL1A [3]) [nM] | Binder | other results
13 | 1.8 | 8.3 | TL1A-0194 (antibody, IgG1, V domains shown, IgG1/kappa variant of TL1A-0002) VH: QVQLVQSGAEVKKPGASVKVSCKASGYDFTYYGISWVRQAPGQGLEWMGWISTYNGNTHYARMLQGRVTMTTDTSTRTAYMELRSLRSDDTAVYYCAREQYYGSGAFRGGMDVWGQGTTVTVSS VL: EIVLTQSPATLSLSPGERATLSCRASQSVSSYLAWYQQKPGQAPRLLIYDASNRATGIPARFSGSGSGTDFTLTISSLEPEDFAVYYCQQRSNWPWTFGQGTKVEIKR | –
14 | 1.8 | 8.2 | TL1A-0195 (antibody, IgG1, V domains shown, IgG1/kappa variant of TL1A-0002) VH: QVQLVQSGAEVKKPGASVKVSCKASGYDFTYYGISWVRQAPGQGLEWMGWISTYNGNTHYARMLQGRVTMTTDTSTRTAYMELRSLRSDDTAVYYCAREQYYGSGAHRGGMDVWGQGTTVTVSS VL: EIVLTQSPATLSLSPGERATLSCRASQSVSSYLAWYQQKPGQAPRLLIYDASNRATGIPARFSGSGSGTDFTLTISSLEPEDFAVYYCQQRSNWPWTFGQGTKVEIKR | –
15 | 2.7 | 11.9 | TL1A-0196 (antibody, IgG1, V domains shown, IgG1/kappa variant of TL1A-0002) VH: QVQLVQSGAEVKKPGASVKVSCKASGYDFTYYGISWVRQAPGQGLEWMGWISTYNGNTHYARMLQGRVTMTTDTSTRTAYMELRSLRSDDTAVYYCARESYYGSGEYRGGMDVWGQGTTVTVSS VL: EIVLTQSPATLSLSPGERATLSCRASQSVSSYLAWYQQKPGQAPRLLIYDASNRATGIPARFSGSGSGTDFTLTISSLEPEDFAVYYCQQRSNWPWTFGQGTKVEIKR | –
16 | 1.9 | 8.7 | TL1A-0197 (antibody, IgG1, V domains shown, IgG1/kappa variant of TL1A-0002) VH: QVQLVQSGAEVKKPGASVKVSCKASGYDFTYYGISWVRQAPGQGLEWMGWISTYNGNTHYARMLQGRVTMTTDTSTRTAYMELRSLRSDDTAVYYCARESYYGSGAFRGGMDVWGQGTTVTVSS VL: EIVLTQSPATLSLSPGERATLSCRASQSVSSYLAWYQQKPGQAPRLLIYDASNRATGIPARFSGSGSGTDFTLTISSLEPEDFAVYYCQQRSNWPWTFGQGTKVEIKR | –
